# Source: article PMC5501724, “Structural Basis for Specific Interaction of TGFβ Signaling Regulators SARA/Endofin with HD-PTP” (Structure(London, England:1993), 2017)
# Substitutions are numbered along the chain they refer to. “And” between values parts separate entries of the source, which are not always exact repeats. Equal entries are not always repeated. Ends that are not written are not given here.
# T1: HD-PTPBro1-CC (1-714) (Homo sapiens, UniProt Q9H3S7)
# T1 construct: HD-PTPBro1-CC (1-714) and AlixBro1 (1-359) were cloned in a pET28a vector; made in house; host or cells: E. coli BL21 (DE3)
# T1 sequence (Q9H3S7 1-714): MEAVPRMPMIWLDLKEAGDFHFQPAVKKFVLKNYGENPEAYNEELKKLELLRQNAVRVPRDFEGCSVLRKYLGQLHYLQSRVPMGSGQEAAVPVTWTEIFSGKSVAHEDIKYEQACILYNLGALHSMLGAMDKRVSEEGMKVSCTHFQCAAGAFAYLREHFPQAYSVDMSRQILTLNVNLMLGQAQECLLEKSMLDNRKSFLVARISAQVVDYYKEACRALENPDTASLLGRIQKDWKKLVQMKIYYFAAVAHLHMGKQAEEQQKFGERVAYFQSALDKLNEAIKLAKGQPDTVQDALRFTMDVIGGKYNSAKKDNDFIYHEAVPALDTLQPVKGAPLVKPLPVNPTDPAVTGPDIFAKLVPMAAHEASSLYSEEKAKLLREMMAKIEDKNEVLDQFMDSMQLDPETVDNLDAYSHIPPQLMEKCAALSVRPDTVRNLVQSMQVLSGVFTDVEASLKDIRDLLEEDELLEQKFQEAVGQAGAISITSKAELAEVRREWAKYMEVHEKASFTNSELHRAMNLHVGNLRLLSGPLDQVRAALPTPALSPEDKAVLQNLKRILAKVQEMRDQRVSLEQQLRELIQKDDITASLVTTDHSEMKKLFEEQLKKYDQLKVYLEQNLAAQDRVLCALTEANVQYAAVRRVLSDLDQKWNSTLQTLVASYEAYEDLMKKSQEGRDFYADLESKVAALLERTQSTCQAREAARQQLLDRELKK
# T2: HD-PTPBro1 (Bro1 domain of HD-PTP, 1-361) (Homo sapiens, UniProt Q9H3S7)
# T2 construct: HD-PTPBro1 (1-361) was cloned in a pNIC28-Bsa4 vector; made in house; host or cells: E. coli BL21 (DE3)
# T2 sequence (Q9H3S7 1-361): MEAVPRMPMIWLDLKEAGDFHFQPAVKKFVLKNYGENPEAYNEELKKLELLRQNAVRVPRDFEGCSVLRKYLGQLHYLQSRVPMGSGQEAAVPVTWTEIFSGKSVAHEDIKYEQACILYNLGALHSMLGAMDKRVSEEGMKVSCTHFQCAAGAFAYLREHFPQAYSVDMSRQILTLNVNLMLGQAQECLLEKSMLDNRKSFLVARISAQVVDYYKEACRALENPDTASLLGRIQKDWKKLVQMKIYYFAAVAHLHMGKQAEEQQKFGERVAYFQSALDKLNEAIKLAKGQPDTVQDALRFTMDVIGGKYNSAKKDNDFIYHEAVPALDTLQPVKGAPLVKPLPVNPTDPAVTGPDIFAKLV
# T3: Endofin (Homo sapiens (Human), UniProt Q7Z3T8)
# T3 chain: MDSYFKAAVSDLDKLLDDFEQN
# T4: His6-HD-PTP_(Bro1) (1-361) (human, UniProt Q9H3S7 1-361)
# T4 construct: HD-PTP/PTPN23, Bro1 domain, residues 1-361; Immobilised by its His6 tag on the HTE chip; also called HD-PTP Bro1 domain; source: E. coli BL21 (DE3), purified (Nickel-beads, MonoQ, Superdex 200); not shown: His6, N-terminal, kept
# T4 sequence (looked up): T2 sequence (Q9H3S7 1-361)
# T5: His6-HD-PTP_(Bro1-CC) (1-714), bacterially expressed (human, UniProt Q9H3S7 1-714)
# T5 construct: HD-PTP/PTPN23, Bro1 and coiled-coil domains, residues 1-714; also called His-HD-PTP; source: E. coli BL21 (DE3), purified (Nickel-beads, MonoQ, Superdex 200); not shown: His6, N-terminal, kept
# T5 sequence (looked up): T1 sequence (Q9H3S7 1-714)
# T6: CHMP4A (Homo sapiens (Human), UniProt Q9BY43)
# T6 chain: PKVDEDEEALKQLAEWVS
# T7: CHMP4B (Homo sapiens (Human), UniProt Q9H444)
# T7 chain: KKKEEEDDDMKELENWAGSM
# T8: CHMP4C (Homo sapiens (Human), UniProt Q96CF2)
# T8 chain: QRAEEEDDDIKQLAAWAT
# T9: His6-HD-PTP_(Bro1-CC) T145K, bacterially expressed (human, UniProt Q9H3S7 1-714, T145K)
# T9 construct: HD-PTP/PTPN23, residues 1-714 with T145K; source: E. coli, bacterially expressed, purified; not shown: His6, N-terminal, kept
# T9 sequence (looked up): T1 sequence (Q9H3S7 1-714) with T145K
# B1: ALIX_Bro1 (protein)
# chain: MATFISVQLKKTSEVDLAKPLVKFIQQTYPSGGEEQAQYCRAAEELSKLRRAAVGRPLDKHEGALETLLRYYDQICSIEPKFPFSENQICLTFTWKDAFDKGSLFGGSVKLALASLGYEKSCVLFNCAALASQIAAEQNLDNDEGLKIAAKHYQFASGAFLHIKETVLSALSREPTVDISPDTVGTLSLIMLAQAQEVFFLKATRDKMKDAIIAKLANQAADYFGDAFKQCQYKDTLPKEVFPVLAAKHCIMQANAEYHQSILAKQQKKFGEEIARLQHAAELIKTVASRYDEYVNVKDFSDKINRALAAAKKDNDFIYHDRVPDLKDLDPIGKATLVKSTPVNVPISQKFTDLFEKMV
# B2: shorter endofin peptide lacking 1-MDSYF-5 (peptide)
# chain: KAAVSDLDKLLDDFEQN
# modifications: C-terminal limit not given; taken as residue 22, the end of the 22-mer endofin peptide
# B3: endofin 22-mer peptide (first 22 residues of endofin) (peptide, UniProt Q7Z3T8 1-22, looked up)
# peptide: MDSYFKAAVSDLDKLLDDFEQN
# notes: human endofin, first 22 residues; begins 1-MDSYF-5; also called endofin peptide; endofin_(1-22) (WT); source: synthetic peptide (Generon Ltd, UK)
# B4: CHMP4A C-terminal peptide (peptide)
# chain: PKVDEDEEALKQLAEWVS
# B5: SARA 22-mer peptide (N-terminal 22 residues of SARA) (peptide, UniProt O95405 1-22, looked up)
# peptide: MENYFQAEAYNLDKVLDEFEQN
# notes: human SARA, N-terminal 22 residues; also called SARA peptide; equivalent region of SARA; source: synthetic peptide (Generon Ltd, UK)
# B6: HDPTP_Bro1 (protein)
# chain: T2 sequence (Q9H3S7 1-361)
# B7: GST-CHMP4B (1-224), bacterially expressed (natural protein, human, UniProt Q9H444 1-224, looked up)
# chain: MSVFGKLFGAGGGKAGKGGPTPQEAIQRLRDTEEMLSKKQEFLEKKIEQELTAAKKHGTKNKRAALQALKRKKRYEKQLAQIDGTLSTIEFQREALENANTNTEVLKNMGYAAKAMKAAHDNMDIDKVDELMQDIADQQELAEEISTAISKPVGFGEEFDEDELMAELEELEQEELDKNLLEISGPETVPLPNVPSIALPSKPAKKKEEEDDDMKELENWAGSM
# notes: CHMP4B, residues 1-224, full length; In pGEX-4T1; also called CHMP4B-FL; full length GST-CHMP4B; source: E. coli C41 (DE3), purified (GSTrap HP)
# B8: CHMP4C C-terminal peptide (peptide)
# chain: QRAEEEDDDIKQLAAWAT
# B9: CHMP4B C-terminal peptide (peptide)
# chain: KKKEEEDDDMKELENWAGSM
# Key:
# HD-PTPBro1-CC (1-714) = target: T1, HD-PTPBro1-CC (1-714); assay: Biosensor (SPR) binding of peptides to HD-PTPBro1-CC; conditions: 10 mM HEPES pH 7.4, 150 mM NaCl, 0.05% Tween 20, 25°C; for Binding to HD-PTPBro1-CC (sensogram): compared with wild-type endofin peptide, result in words
# Procedure: (§1) Biosensor based binding experiments were performed using a ProteOn XPR36 surface Plasmon resonance instrument (Bio-Rad Laboratories). The ProteOn XPR36 is multiplex system that can be used to provide simultaneous flow of up to six analyte channels (A1-A6) over up to six ligand channels (L1-L6). The running buffer used was 10 mM HEPES pH 7.4, 150 mM NaCl, 0.05% Tween 20. Immobilization of His6-tagged HD-PTP and a negative control protein, His6-tagged MptpB, was performed on a HTE chip (Bio-Rad Laboratories) in the vertical orientation. Proteins were diluted in running buffer to a final concentration of 50-100 μg/ml and 150 μl was injected at a flow rate of 30 μl/min The immobilization level of proteins was typically 5000-8000 response unit (RU). All experiments were performed at 25°C. Synthetic peptides spanning the binding regions of CHMP4 A, B and C, and SARA and endofin, were obtained from Generon Ltd, UK. For equilibrium binding measurements these peptides were used as analytes. Peptide stocks were prepared in running buffer just prior the binding experiments. Peptides were injected (50 μl at 100 μl/min) in the horizontal orientation using five serially diluted peptide concentrations (channels A1-A5) alongside a buffer control (channel A6). Peptide concentrations were chosen to give a suitable spread of responses below and above half-maximal binding.
# (§2) All the binding sensograms were collected, processed and analyzed using the integrated ProteOn Manager software (Bio-Rad Laboratories), using the equilibrium binding mode: Response = [A] ^∗ Rmax/([A] + KD), where [A] is the analyte concentration and Rmax is the maximum response. At least 3 independent replicates were performed for each experiment. Values in the text and figure legends indicate mean +/- SD (standard deviation).
# [1] = target: T2, HD-PTPBro1 (Bro1 domain of HD-PTP, 1-361); assay: Biosensor (SPR) binding of peptides to HD-PTPBro1; conditions: 10 mM HEPES pH 7.4, 150 mM NaCl, 0.05% Tween 20, 25°C; for Binding to HD-PTPBro1 (sensogram): compared with wild-type endofin peptide, result in words
# Procedure: as §1, §2
# Endofin = target: T3, Endofin; assay: SPR equilibrium, peptide analyte
# [2] = target: T4, His6-HD-PTP_(Bro1) (1-361); assay: SPR; ProteOn XPR36; His6-tagged proteins immobilised on a HTE chip (5000-8000 RU); synthetic peptides as analytes, five concentrations; 10 mM HEPES pH 7.4, 150 mM NaCl, 0.05% Tween 20; 25°C; equilibrium binding fit; conditions: both partners purified
# [3] = target: T5, His6-HD-PTP_(Bro1-CC) (1-714), …; assay: as above; conditions: both partners purified
# CHMP4A = target: T6, CHMP4A; assay: SPR equilibrium, peptide analyte
# CHMP4B = target: T7, CHMP4B; assay: SPR equilibrium, peptide analyte
# CHMP4C = target: T8, CHMP4C; assay: SPR equilibrium, peptide analyte
# [4] = target: T5, His6-HD-PTP_(Bro1-CC) (1-714), …; assay: co-IP; competition: GST-CHMP4B and His6-HD-PTP Bro1-CC as in the CHMP4B binding experiments, endofin 22-mer peptide (WT or L15P) added at 20 μM; immunoprecipitation with anti-His; conditions: both partners purified
# [5] = target: T9, His6-HD-PTP_(Bro1-CC) T145K, …; assay: co-IP; bacterially expressed GST-CHMP4B, full length or truncated (50 μg/ml), and His6-HD-PTP Bro1-CC (5 μg) in 200 μl IP2 buffer with 250 mM NaCl, 2 h at 4°C; immunoprecipitation with anti-His; conditions: both partners purified
# [6] = listed as endofin L15 to proline
# [7] = listed as endofin peptide containing the L15P mutation
molecule,measurement,setting,value
KAAVSDLDKLLDDFEQN,Binding to HD-PTPBro1-CC (sensogram),HD-PTPBro1-CC (1-714),poor binding
same,Kd,"HD-PTPBro1-CC (1-714); poor binding, read-out: Binding (affinity bound) to HD-PTPBro1-CC",> 1500 µM
same,Binding to HD-PTPBro1 (sensogram),[1],poor binding
same,Kd,"[1]; poor binding, read-out: Binding (affinity bound) to HD-PTPBro1",> 1500 µM
endofin1–22(L15P): endofin 22-mer peptide containing the L15P mutation (MDSYFKAAVSDLDKPLDDFEQN),Binding to HD-PTPBro1-CC (sensogram),HD-PTPBro1-CC (1-714); [6],abolishes binding
same,Binding to HD-PTPBro1-CC (sensogram),HD-PTPBro1-CC (1-714); [7],did not bind
same,Binding to HD-PTPBro1 (sensogram),[1]; [6],abolishes binding
same,Binding to HD-PTPBro1 (sensogram),[1]; [7],did not bind
B1,Kd,Endofin,> 12.5 µM
B2,Kd,[2],> 1500 µM
same,Kd,[3],> 1500 µM
B3,Kd,[2],3.1 µM
same,Kd,[3],2.7 µM
B4,Kd,[2],132 µM
B5,Kd,[2],11.3 µM
B6,Kd,CHMP4A,132 µM
same,Kd,CHMP4B,85 µM
same,Kd,CHMP4C,88 µM
B7,binding result,[4],binds
same,binding result,[5],binds
B8,Kd,[2],89 µM and 88 µM
B9,Kd,[2],85 µM
